# According to paper PMC10470007 (The Journal of Biological Chemistry, 2023):
# Target: T1, 1N3R Tau protein isoform with a V5 insertion between E73 and A74 (V5 epitope tag (simian virus 5 P/V …, strain, labeled with Alexa Fluor 488 NHS (succinimidyl) ester, 2:1 NHS Alexa:Tau-V5))
# T1 construct: also called Tau-V5; labeled Tau-V5
# Test: flow cytometry on cells
# Conditions: one partner purified
binder,measurement,value
"NbV5-AGAP2-Halo-myc (VHH, also called NbV5 (yeast surface display)) VHH: EVQLQASGGGFVQPGGSLRLSCAASGTTSFGDTMGWFRQAPGKEREFVSAISRQGDKHYYADSVKGRFTISRDNSKNTVYLQMNSLRAEDTATYYCAEWMNTRREFITPYWGQGTQVTVSS",Kd,29 nM
